Numbered stars: 1 amine (or outer) side, 2 acyl side, 3 side chain; on linkers, the order of the positions; unused ones are H or OH. Bridge positions count the residues as written; N and C are the ends. Square brackets hold non-standard residues; d marks the D form. Side chains are listed from the residue outwards. Ends that are not written are not given here. * marks the point of attachment. C20 diacid = O=C(O)CCCCCCCCCCCCCCCCCCC(=O)*; γGlu = O=C(O)[C@H](CCC(=O)[*:2])N[*:1]
T1: human calcitonin receptor (human, UniProt P30988 25-474)
T1 sequence (looked up): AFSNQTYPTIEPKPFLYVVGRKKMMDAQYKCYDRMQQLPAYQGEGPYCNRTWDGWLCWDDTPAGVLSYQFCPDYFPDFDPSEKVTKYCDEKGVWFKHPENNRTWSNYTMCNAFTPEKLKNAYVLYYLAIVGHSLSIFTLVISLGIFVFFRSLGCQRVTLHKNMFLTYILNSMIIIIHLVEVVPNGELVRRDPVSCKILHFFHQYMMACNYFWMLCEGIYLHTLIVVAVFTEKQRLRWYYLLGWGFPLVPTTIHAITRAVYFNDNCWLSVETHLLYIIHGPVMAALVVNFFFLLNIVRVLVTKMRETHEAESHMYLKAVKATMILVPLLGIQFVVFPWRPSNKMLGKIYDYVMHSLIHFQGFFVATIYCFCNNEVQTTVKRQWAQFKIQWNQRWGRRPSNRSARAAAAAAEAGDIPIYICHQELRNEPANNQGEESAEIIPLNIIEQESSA

T2: human amylin receptor (amylin 3(a) receptor: human calcitonin receptor with RAMP-3) (human, UniProt P30988 25-474; O60896 24-148, limits assumed)
T2 sequence (looked up) 1: T1 sequence (looked up)
T2 sequence (looked up) 2: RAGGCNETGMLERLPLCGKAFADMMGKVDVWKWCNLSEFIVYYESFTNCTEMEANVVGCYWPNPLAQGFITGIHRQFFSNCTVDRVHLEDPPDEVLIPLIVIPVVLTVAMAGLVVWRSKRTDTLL

T3: human calcitonin receptor (human, UniProt P30988 25-474)
T3 sequence (looked up): T1 sequence (looked up)

T4: human amylin receptor (amylin 3(a) receptor: human calcitonin receptor with RAMP-3) (human, UniProt P30988 25-474; O60896 24-148, limits assumed)
T4 construct: whole, on cells; Whole cells in the luciferase assay (Assay II a); also called hAmylin-R; hAmylinR
T4 sequence (looked up) 1: T1 sequence (looked up)
T4 sequence (looked up) 2: T2 sequence (looked up) 2

B1: N^ε1-[(4S)-4-carboxy-4-[[(4S)-4-carboxy-4-(19-carboxynonadecanoylamino)butanoyl]amino]butanoyl]-[Asp14,Arg17,Pro21,Pro27,Pro34,Arg35]-h-amylin (peptide)
peptide: K([γGlu-γGlu-C20 diacid])CNTATCATQRLADFLRHSSPNFGAIPSSTNVGPRTY-NH2
modifications: disulfide 2-7; N-terminus assumed
SMILES: CC[C@H](C)[C@H](NC(=O)[C@H](C)NC(=O)CNC(=O)[C@H](Cc1ccccc1)NC(=O)[C@H](CC(N)=O)NC(=O)[C@@H]1CCCN1C(=O)[C@H](CO)NC(=O)[C@H](CO)NC(=O)[C@H](Cc1c[nH]cn1)NC(=O)[C@H](CCCNC(=N)N)NC(=O)[C@H](CC(C)C)NC(=O)[C@H](Cc1ccccc1)NC(=O)[C@H](CC(=O)O)NC(=O)[C@H](C)NC(=O)[C@H](CC(C)C)NC(=O)[C@H](CCCNC(=N)N)NC(=O)[C@H](CCC(N)=O)NC(=O)[C@@H](NC(=O)[C@H](C)NC(=O)[C@@H]1CSSC[C@H](NC(=O)[C@@H](N)CCCCNC(=O)CC[C@H](NC(=O)CC[C@H](NC(=O)CCCCCCCCCCCCCCCCCCC(=O)O)C(=O)O)C(=O)O)C(=O)N[C@@H](CC(N)=O)C(=O)N[C@@H]([C@@H](C)O)C(=O)N[C@@H](C)C(=O)N[C@@H]([C@@H](C)O)C(=O)N1)[C@@H](C)O)C(=O)N1CCC[C@H]1C(=O)N[C@@H](CO)C(=O)N[C@@H](CO)C(=O)N[C@H](C(=O)N[C@@H](CC(N)=O)C(=O)N[C@H](C(=O)NCC(=O)N1CCC[C@H]1C(=O)N[C@@H](CCCNC(=N)N)C(=O)N[C@H](C(=O)N[C@@H](Cc1ccc(O)cc1)C(N)=O)[C@@H](C)O)C(C)C)[C@@H](C)O
notes: also called compound 130
B2: N^ε1-[(4S)-4-carboxy-4-[[(4S)-4-carboxy-4-(19-carboxynonadecanoylamino)butanoyl]amino]butanoyl]-[Glu14,Arg17,Pro21,Pro27,Pro34,Arg35]-h-amylin (peptide)
peptide: K([γGlu-γGlu-C20 diacid])CNTATCATQRLAEFLRHSSPNFGAIPSSTNVGPRTY-NH2
modifications: disulfide 2-7; N-terminus assumed
SMILES: CC[C@H](C)[C@H](NC(=O)[C@H](C)NC(=O)CNC(=O)[C@H](Cc1ccccc1)NC(=O)[C@H](CC(N)=O)NC(=O)[C@@H]1CCCN1C(=O)[C@H](CO)NC(=O)[C@H](CO)NC(=O)[C@H](Cc1c[nH]cn1)NC(=O)[C@H](CCCNC(=N)N)NC(=O)[C@H](CC(C)C)NC(=O)[C@H](Cc1ccccc1)NC(=O)[C@H](CCC(=O)O)NC(=O)[C@H](C)NC(=O)[C@H](CC(C)C)NC(=O)[C@H](CCCNC(=N)N)NC(=O)[C@H](CCC(N)=O)NC(=O)[C@@H](NC(=O)[C@H](C)NC(=O)[C@@H]1CSSC[C@H](NC(=O)[C@@H](N)CCCCNC(=O)CC[C@H](NC(=O)CC[C@H](NC(=O)CCCCCCCCCCCCCCCCCCC(=O)O)C(=O)O)C(=O)O)C(=O)N[C@@H](CC(N)=O)C(=O)N[C@@H]([C@@H](C)O)C(=O)N[C@@H](C)C(=O)N[C@@H]([C@@H](C)O)C(=O)N1)[C@@H](C)O)C(=O)N1CCC[C@H]1C(=O)N[C@@H](CO)C(=O)N[C@@H](CO)C(=O)N[C@H](C(=O)N[C@@H](CC(N)=O)C(=O)N[C@H](C(=O)NCC(=O)N1CCC[C@H]1C(=O)N[C@@H](CCCNC(=N)N)C(=O)N[C@H](C(=O)N[C@@H](Cc1ccc(O)cc1)C(N)=O)[C@@H](C)O)C(C)C)[C@@H](C)O
notes: also called compound 110
B3: N^ε1-[(4S)-4-carboxy-4-[[(4S)-4-carboxy-4-(19-carboxynonadecanoylamino)butanoyl]amino]butanoyl]-[D-Asp14,Arg17,Pro21,Pro27,Arg35]-h-amylin (peptide)
peptide: K([γGlu-γGlu-C20 diacid])CNTATCATQRLA[dD]FLRHSSPNFGAIPSSTNVGSRTY-NH2
modifications: disulfide 2-7; N-terminus assumed
SMILES: CC[C@H](C)[C@H](NC(=O)[C@H](C)NC(=O)CNC(=O)[C@H](Cc1ccccc1)NC(=O)[C@H](CC(N)=O)NC(=O)[C@@H]1CCCN1C(=O)[C@H](CO)NC(=O)[C@H](CO)NC(=O)[C@H](Cc1c[nH]cn1)NC(=O)[C@H](CCCNC(=N)N)NC(=O)[C@H](CC(C)C)NC(=O)[C@H](Cc1ccccc1)NC(=O)[C@@H](CC(=O)O)NC(=O)[C@H](C)NC(=O)[C@H](CC(C)C)NC(=O)[C@H](CCCNC(=N)N)NC(=O)[C@H](CCC(N)=O)NC(=O)[C@@H](NC(=O)[C@H](C)NC(=O)[C@@H]1CSSC[C@H](NC(=O)[C@@H](N)CCCCNC(=O)CC[C@H](NC(=O)CC[C@H](NC(=O)CCCCCCCCCCCCCCCCCCC(=O)O)C(=O)O)C(=O)O)C(=O)N[C@@H](CC(N)=O)C(=O)N[C@@H]([C@@H](C)O)C(=O)N[C@@H](C)C(=O)N[C@@H]([C@@H](C)O)C(=O)N1)[C@@H](C)O)C(=O)N1CCC[C@H]1C(=O)N[C@@H](CO)C(=O)N[C@@H](CO)C(=O)N[C@H](C(=O)N[C@@H](CC(N)=O)C(=O)N[C@H](C(=O)NCC(=O)N[C@@H](CO)C(=O)N[C@@H](CCCNC(=N)N)C(=O)N[C@H](C(=O)N[C@@H](Cc1ccc(O)cc1)C(N)=O)[C@@H](C)O)C(C)C)[C@@H](C)O
B4: N^ε1-[(4S)-4-carboxy-4-[[(4S)-4-carboxy-4-(19-carboxynonadecanoylamino)butanoyl]amino]butanoyl]-[Glu14,Arg17,Pro21,Pro27,Arg35]-h-amylin (peptide)
peptide: K([γGlu-γGlu-C20 diacid])CNTATCATQRLAEFLRHSSPNFGAIPSSTNVGSRTY-NH2
modifications: disulfide 2-7; N-terminus assumed
SMILES: CC[C@H](C)[C@H](NC(=O)[C@H](C)NC(=O)CNC(=O)[C@H](Cc1ccccc1)NC(=O)[C@H](CC(N)=O)NC(=O)[C@@H]1CCCN1C(=O)[C@H](CO)NC(=O)[C@H](CO)NC(=O)[C@H](Cc1c[nH]cn1)NC(=O)[C@H](CCCNC(=N)N)NC(=O)[C@H](CC(C)C)NC(=O)[C@H](Cc1ccccc1)NC(=O)[C@H](CCC(=O)O)NC(=O)[C@H](C)NC(=O)[C@H](CC(C)C)NC(=O)[C@H](CCCNC(=N)N)NC(=O)[C@H](CCC(N)=O)NC(=O)[C@@H](NC(=O)[C@H](C)NC(=O)[C@@H]1CSSC[C@H](NC(=O)[C@@H](N)CCCCNC(=O)CC[C@H](NC(=O)CC[C@H](NC(=O)CCCCCCCCCCCCCCCCCCC(=O)O)C(=O)O)C(=O)O)C(=O)N[C@@H](CC(N)=O)C(=O)N[C@@H]([C@@H](C)O)C(=O)N[C@@H](C)C(=O)N[C@@H]([C@@H](C)O)C(=O)N1)[C@@H](C)O)C(=O)N1CCC[C@H]1C(=O)N[C@@H](CO)C(=O)N[C@@H](CO)C(=O)N[C@H](C(=O)N[C@@H](CC(N)=O)C(=O)N[C@H](C(=O)NCC(=O)N[C@@H](CO)C(=O)N[C@@H](CCCNC(=N)N)C(=O)N[C@H](C(=O)N[C@@H](Cc1ccc(O)cc1)C(N)=O)[C@@H](C)O)C(C)C)[C@@H](C)O
notes: also called compound 89

Biological target: T1, human calcitonin receptor
Experiment: cell-based or functional assay

hCTR funct. EC50 (pM)	Binder
843	K([γGlu-γGlu-C20 diacid])CNTATCATQRLADFLRHSSPNFGAIPSSTNVGPETY-NH2 (disulfide 2-7 (inferred))
100000	K([γGlu-γGlu-C20 diacid])CNTATCATQRLA[dD]FLRHSSPNFGAIPSSTNVGSRTY-NH2 (disulfide 2-7 (inferred))
7280	K([γGlu-γGlu-C20 diacid])CNTATCATQRLADFLRHSSPNFGAIPSSTNVGPRTY-NH2 (disulfide 2-7 (inferred), also called compound 130)
1450	K([γGlu-C20 diacid])CNTATCATQRLAEFLRHSSPNFGAIPSSTNVGPHTY-NH2 (disulfide 2-7 (inferred))
3640	K([γGlu-C20 diacid])CNTATCATQRLADFLRHSSPNFGAIPSSTNVGPRTY-NH2 (disulfide 2-7 (inferred))
8660	K([γGlu-γGlu-C20 diacid])CNTATCATQRLANFLRHSSPNFGAIPSSTPVGPRTY-NH2 (disulfide 2-7 (inferred))
102	K([γGlu-γGlu-C20 diacid])CNTATCATQRLAEFLRHSSPNFGAIPSSTNVGPETP-NH2 (disulfide 2-7 (inferred))
2830	K([γGlu-γGlu-C20 diacid])CNTATCATQRLAEFLRHSSPNFGAIPSSTNVGPHTY-NH2 (disulfide 2-7 (inferred))
5580	K([γGlu-C20 diacid])CNTATCATQRLAEFLRHSSPNFGAIPSSTNVGSHTY-NH2 (disulfide 2-7 (inferred))

Biological target: T2, human amylin receptor (amylin 3(a) …)
Experiment: cell-based or functional assay

Ratio hCT/hAmylin funct.	hAmylin-R funct. EC50 (pM)	Binder
5.3	159	K([γGlu-γGlu-C20 diacid])CNTATCATQRLADFLRHSSPNFGAIPSSTNVGPETY-NH2 (disulfide 2-7 (inferred))
–	383	K([γGlu-γGlu-C20 diacid])CNTATCATQRLA[dD]FLRHSSPNFGAIPSSTNVGSRTY-NH2 (disulfide 2-7 (inferred))
–	162	K([γGlu-γGlu-C20 diacid])CNTATCATQRLADFLRHSSPNFGAIPSSTNVGPRTY-NH2 (disulfide 2-7 (inferred), also called compound 130)
–	101	K([γGlu-C20 diacid])CNTATCATQRLAEFLRHSSPNFGAIPSSTNVGPHTY-NH2 (disulfide 2-7 (inferred))
–	146	K([γGlu-C20 diacid])CNTATCATQRLADFLRHSSPNFGAIPSSTNVGPRTY-NH2 (disulfide 2-7 (inferred))
–	333	K([γGlu-γGlu-C20 diacid])CNTATCATQRLANFLRHSSPNFGAIPSSTPVGPRTY-NH2 (disulfide 2-7 (inferred))
0.8	132	K([γGlu-γGlu-C20 diacid])CNTATCATQRLAEFLRHSSPNFGAIPSSTNVGPETP-NH2 (disulfide 2-7 (inferred))
–	172	K([γGlu-γGlu-C20 diacid])CNTATCATQRLAEFLRHSSPNFGAIPSSTNVGPHTY-NH2 (disulfide 2-7 (inferred))
–	425	K([γGlu-C20 diacid])CNTATCATQRLAEFLRHSSPNFGAIPSSTNVGSHTY-NH2 (disulfide 2-7 (inferred))

Biological target: T3, human calcitonin receptor
Experiment: cell-based or functional assay

Ratio hCT/hAmylin funct. [ratio]	hCTR funct. EC50 (pM)	Binder
44.9	7280	B1
29.3	8160	B2
–	100000	B3
27.8	11200	B4

Biological target: T4, human amylin receptor (amylin 3(a) …)
Experiment: SPA competition binding on membranes of BHK cells with human calcitonin receptor + RAMP-3; displacement of 125I-rat amylin (Assay V)
In short: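 One-site competition analysis of SPA counts yielded IC₅₀ as a measure of affinity. Membranes were at 35 ng/μL final; incubation was 120 min at 25° C, pH 7.4.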

IC50 [nM]	Binder
0.453	B1
0.326	B2
0.365	B3
1.16	B4

From US20140087995A1 (published 2014)
